From patent EP3758732B1 (Leidos, Inc., dated 2024)

What was measured:
[1] = molecular target: human PD-1 on Jurkat cells (human, UniProt Q15116 25-288); experiment: cell-based or functional assay
[2] = molecular target: T1, soluble recombinant human PD-1 receptor (human, UniProt Q15116 25-167, limits assumed); experiment: clonal phage ELISA, peptide on phage, wells coated with PD-1
T1 construct: also called human PD-1 receptors
T1 sequence (Q15116 25-167 limits assumed): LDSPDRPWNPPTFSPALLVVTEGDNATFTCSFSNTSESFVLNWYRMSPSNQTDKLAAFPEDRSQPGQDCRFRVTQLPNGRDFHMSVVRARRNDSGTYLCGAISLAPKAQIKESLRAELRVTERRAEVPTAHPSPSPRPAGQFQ

Sequence of human PD-1 on Jurkat cells (Q15116 25-288): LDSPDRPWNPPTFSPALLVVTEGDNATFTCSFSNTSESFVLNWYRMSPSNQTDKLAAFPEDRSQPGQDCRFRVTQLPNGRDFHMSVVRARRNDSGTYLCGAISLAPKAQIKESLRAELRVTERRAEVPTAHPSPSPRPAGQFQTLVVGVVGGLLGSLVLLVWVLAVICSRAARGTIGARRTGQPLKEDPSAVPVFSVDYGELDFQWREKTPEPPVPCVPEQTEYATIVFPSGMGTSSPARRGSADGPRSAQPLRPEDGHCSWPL

B1: SQ20 (peptide)
peptide: SSYHHFKMPELHFGKNTFHQ
notes: Found by phage display; also called peptide SQ20
peak-fold inhibition (luciferase reporter) [1]: ~1.5 fold | coated signal [2]: 0.284

B2: QP20 (peptide)
peptide: QTRTVPMPKIHHPPWQNVVP
notes: Found by phage display; also called peptide QP20
peak-fold inhibition (luciferase reporter) [1]: ~1.5 fold | coated signal [2]: 0.851

B3: HD20 (peptide)
peptide: HHHQVYQVRSHWTGMHSGHD
notes: Found by phage display; also called peptide HD20
peak-fold inhibition (luciferase reporter) [1]: ~1.5 fold | coated signal [2]: 0.281

WNLPASFHNHHIRPHEHEWIQ (also called WQ-21; peptide WQ20) [WQ20]
peak-fold inhibition (luciferase reporter) [1]: ~1.5 fold | coated signal [2]: 0.275
